Experimental data from patent US20040120958A1 (CORNELL RESEARCH FOUNDATION, published 2004).

Key:
[1] = target: T1, prostate specific membrane antigen (PSMA) on LNCaP cells (human, UniProt Q04609 1-750); test: ELISA on plates coated with LNCap membrane preparation
T1 construct: whole, on cells; also called LNCap membrane preparation

[2] = target: T1, prostate specific membrane antigen …; test: ELISA on plates coated with LNCap membrane preparation; purified antibody; reference J415 chimeric antibody

T1 sequence (Q04609 whole entry): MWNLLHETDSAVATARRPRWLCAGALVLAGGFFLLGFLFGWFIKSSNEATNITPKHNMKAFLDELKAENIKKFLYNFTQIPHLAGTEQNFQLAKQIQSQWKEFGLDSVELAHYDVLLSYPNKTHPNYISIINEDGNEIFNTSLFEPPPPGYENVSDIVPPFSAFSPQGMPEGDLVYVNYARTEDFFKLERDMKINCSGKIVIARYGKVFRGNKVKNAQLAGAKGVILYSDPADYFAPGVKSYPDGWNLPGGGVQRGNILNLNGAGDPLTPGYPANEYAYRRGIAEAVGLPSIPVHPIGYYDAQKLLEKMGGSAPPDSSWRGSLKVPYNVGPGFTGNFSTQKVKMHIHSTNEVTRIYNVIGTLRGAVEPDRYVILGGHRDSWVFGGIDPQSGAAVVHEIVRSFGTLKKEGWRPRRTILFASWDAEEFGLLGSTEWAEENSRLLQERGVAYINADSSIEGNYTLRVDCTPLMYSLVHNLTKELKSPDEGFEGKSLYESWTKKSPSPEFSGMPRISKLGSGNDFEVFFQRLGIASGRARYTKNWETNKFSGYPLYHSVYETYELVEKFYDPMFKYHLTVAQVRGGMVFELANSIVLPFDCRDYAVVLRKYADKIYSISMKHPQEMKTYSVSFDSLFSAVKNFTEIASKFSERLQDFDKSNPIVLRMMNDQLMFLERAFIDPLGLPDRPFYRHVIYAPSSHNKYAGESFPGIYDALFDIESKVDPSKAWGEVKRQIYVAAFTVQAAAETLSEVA

B1: deimmunized J415 heavy chain version 4 combined with deimmunized J415 light chain version 5 (antibody, V domains shown)
VH: EVKLEESGGGLVQPGGSMKISCVASGFTFSNYWMNWVRQSPEKGLEWVAEIRSQSNNFATHYAESVKGRVIISRDDSKSSVYLQMNSLRAEDTAVYYCTRRWNNFWGQGTTVTVSS
VL: NIVMTQFPKSMSASAGERMTLTCKASENVGTYVSWYQQKPTQSPKMLIYGASNRFTGVPDRFSGSGSGTDFILTISSVQAEDLVDYYCGQSYTFPYTFGGGTKLEMK
notes: also called DIVH4/DIVK5; J415DIVH4/J415DIVK5
binding result [1]: binds

B2: deimmunized J415 heavy chain version 1 combined with DIVK5 (antibody, V domains shown)
VH: EVKLEESGGGLVQPGGSMKISCKASGFTFSNYWMNWVRQTPEKGLEWVALIRSQSNNFATHYAESVKGRVIISRDDSKSSVYLQMNSLRAEDTAVYYCTRRWNNFWGQGTTVTVSS
VL: NIVMTQFPKSMSASAGERMTLTCKASENVGTYVSWYQQKPTQSPKMLIYGASNRFTGVPDRFSGSGSGTDFILTISSVQAEDLVDYYCGQSYTFPYTFGGGTKLEMK
notes: also called J415DIVH1/J415DIVK5
fold less binding than the chimeric antibody [2]: 2 fold

B3: deimmunized J415 heavy chain version 2 combined with DIVK5 (antibody, V domains shown)
VH: EVKLEESGGGLVQPGGSMKISCVASGFTFSNYWMNWVRQTPEKGLEWVALIRSQSNNFATHYAESVKGRVIISRDDSKSSVYLQMNSLRAEDTAVYYCTRRWNNFWGQGTTVTVSS
VL: NIVMTQFPKSMSASAGERMTLTCKASENVGTYVSWYQQKPTQSPKMLIYGASNRFTGVPDRFSGSGSGTDFILTISSVQAEDLVDYYCGQSYTFPYTFGGGTKLEMK
notes: also called J415DIVH2/J415DIVK5
fold less binding than the chimeric antibody [2]: 2 fold

B4: J415 chimeric antibody (antibody, V domains shown)
VH: EVKLEESGGGLVQPGGSMKLSCVASGFTFSNYWMNWVRQSPEKGLEWVAEIRSQSNNFATHYAESVKGRVIISRDDSKSSVYLQMNNLRAEDTGIYYCTRRWNNFWGQGTTLTVSS
VL: NIVMTQFPKSMSISVGERVTLTCKASENVGTYVSWYQQKPEQSPKMLIYGASNRFTGVPDRFTGSGSATDFILTISSVQTEDLVDYYCGQSYTFPYTFGGGTKLEMK
notes: Expression vectors carry human IgG1 and kappa; also called the chimeric
binding result [1]: binds
